Experimental data as given in the supplement of paper PMC12636428.

Tested on: Saccharomyces cerevisiae
Experiment: transcriptional activation domain activity (GFP:mCherry ratio, weighted mean of sorted bins, harmonized to initial dataset scale) (arbitrary fluorescence ratio units); higher = stronger transcriptional activation
Settings: beta-estradiol 1 µM; induction time 4 h
Description: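 53-aa protein tiles (fungal proteins plus yeast TF control tiles) fused C-terminally to a DBD-estrogen-binding domain-mCherry synthetic TF, integrated in S. cerevisiae (URA3 locus) with a GFP reporter. Cells were induced with 1 uM beta-estradiol for 4 h at 30 C, FACS-sorted into 8 bins by GFP:mCherry ratio and barcodes sequenced. Activity is the read-weighted mean bin fluorescence (GFP:mCherry), averaged over barcodes (median 12); tiles under 50 reads were discarded. New active-learning values were harmonized by linear fit onto the scale of the initial (Hummel et al.) dataset. The assay saturates at low and high signal.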

| Sequence | transcriptional activation domain activity |
| --- | --- |
| EDGGEDGETGGKILTKAEKEKQKKEREKQRKKEQATPAKAAAEEKKVEAAPAA | 32100 |
| EDGNGHGTHCSGTIAGKKYGVAKKAHVYAVKVLRSNGSGSMSDVVKGVEFAAT | 42400 |
| EDGRGSRRRKSRSRGREEEDSSSRRRKDRSRSRSVDKERKKRKRDKSEDRKAR | 31800 |
| EDKAAEDGAAKKPKTTELPGGVKIQDMKVGSGPQAKPGKKIGMRYIGKLQGSN | 30600 |
| EDLRAAMEEEEEVEENEAEEEWVDVMKKHRVQASRLELLASGVGTGRTTSPVD | 15900 |
| EDRHSSKRRRERSRSPVRDTRRRSRSPAARGKNDEDRRDRRRSSSRERDRRRG | 32600 |
| EDRSEKRKRKRDDEVEPKKSKSKWKPEEKSDEDPKSTPKSNGGKRRRPERPEK | 27300 |
| EDSEEKPRKKTPRKAAASKPKSKGKKKADSDSGEESDAEPRAKKSATKGKGKK | 25500 |
| EDSEPEPQPQKSQSRRRQSRGRGRRGGDSDNESVARSDVSASGGRRNRQRKQK | 22200 |
| EDTVHSVRVKAHRMKKSESGETGWAELGVGVLRLKTHKETASRRMLLRNSGNG | 58000 |
| EEAAAPAASKGQGTAAAASGRSRNRRRGAGEDGKGKAERGGEAMTSAPSPAKP | 13400 |
| EEAAVESEAPKKKGRAKRVKPEPEVDDEPAVEQPKKKGRVKKAKVEPEPEADE | 46900 |
| EEAEKVPEKKPKAEEKAAEDGESSNPVHKCWNCGRTKSAVWRTKVMEDGKAVR | 33200 |
| EEAFVAINLRNLLTFGLTYFINDWILDDGVLFVFCILGMLFLVVCLMTIPLWI | 29000 |
| EEDAGATSEPASTPKLKPETKPKPKAAPKPKPKAEETDSSAKPKAKPKARASS | 33000 |
| EEDDVKSEKSSRSKRRESTKEEVASPVRSERGSDKSSRSKKRDIVAEAAAIVS | 35500 |
| EEDEEDEDDDDDDDDDDDDDDDDDDEKPVHHKKPAHHRHHHKSKPVHHESQPA | < 6570 |
| EEDEETSHEVRSKVYKLVKKSDGNQEWNDMGVETGSRRVLLRNSSTGKIVINF | 25400 |
| EEDLWTMTNLFVSPVARSLPCTSLLLCLCSLLVYLLASLTFPYLAFFLVFILF | 53000 |
| EEDNHSGDDNEDDHDSSGVDDDHGGGGDEDDGDGGEGDGGDVMQLYFIHNIIL | 37400 |
| EEDSKVSVDVDRPAKRGRGRPPKPKDPNAPPPKPKSGRGRGRPPKAKPVEVAG | 39800 |
| EEEAELAKPAKRPRESDATERDASTGDEVSKKKSKKLKAENGAPVAAPAGTSG | 39300 |
| EEEAEPKPAASAPAVAPAADEEGDDQGGDDAAKKKKKKKKGKKDEDAEPAPAA | 35300 |
| EEEAPEDNSGPRQGAKPAKRAHARARAPKCSGPTNAKVNGKGRARRSGRPAKK | 24900 |
| EEEAVVSAATDEAVKEEGRQVDAGSADAGGEAAAPRKKIRKRSKAKPTPEQKL | 21200 |
| EEEDGEEDYGNRLFVIASDKLQEEQLLIDVPPGNILSSNLLQVLKEILKTRKK | 26100 |
| EEEDGQSEPDSARAPRKAKSKTRAATDGEDESEARSKPKASRKGRRKVEASDA | 24000 |

| Sequence | transcriptional activation domain activity |
| --- | --- |
| EEEDRHRHSRHRSKRSRSRTYSEERHRSRTRDSARRSKTRTKSPDERPPASED | 40900 |
| EEEEDAETPAQESEEEKAASEPSSPPVVQQIPRKKRLGRPPKNRPPDWNAVEP | 37600 |
| EEEEEEEGGETKKKRRRAASAAAKGRKGGRKSTASEEDEVVGGEESENRASKK | 25400 |
| EEEEEEERPAKRQKKKLAAEEDEEEGEGEGEEEEEEEERPAKRQKKKPAAEDE | 26900 |
| EEEEPSDEGEGEELDENGDVVMADVSQKSTKSKKEEPAQRYIGSVEVLSKLNL | < 6570 |
| EEEEQAKTSPAKSESKKEKKDKKKKRSADEIESGPEGTPKVAKKIKADSGAAV | 42700 |
| EEEERKQNEKRERAEERRKEKLEEEKEKREKDRKETEKKGGKGKGEQGKGKEK | 17200 |
| EEEESAAAAKKMAAVKTRKARAGSPKTKSARKATSTRPTSKTKGGAKAKRAAA | 20900 |
| EEEGAVDEDEEEEDEEDPEERRKRELRERMAKMSGGMGMAGMFGGGMPMPGAA | 58900 |
| EEEGDEDVSGSEGSSRRKGRQRNEEEDDRSAGRRSHRLKDKSRSSTRNRRGSD | 13600 |
| EEEGNSRRKRRHRDDRDSRERDERGRDRDRERRRHRRDSSRSRDASEEERGHK | 13400 |
| EEEKPKEEKPKEEKPEEEKPEEQKPEEEKPKEKPEEQKPEAPAPTPAPEPAPE | 23200 |
| EEEPATKKQKTDDAAATTNGDAKPKGKPGRPKKAESEKKSPAKKRDPKKAATA | 33700 |
| EEEQPKKKSARKKKNAEDEDEDWDAKPKPKAKPKAKAAKKKAADGEEAGDAEK | 26200 |
| EEERGEERREGEERVEQGEEGAGGEGDEEGRSAEHGAGGELAERRGEAGDAEV | 22900 |
| EEESQAKKTTAAASSTKDLDPKGGTSGKEKKENEGTLTKRGKSGRRKVRKSVL | 17800 |
| EEEVEEKKAKKEKKSKEDKEDKKAKKDKKSKKDKSKDADEDVERTNGHSTPAA | 26100 |
| EEEYEEEEEEEYEEEEDEEEDEDEEEGGEGEEEDEVKAQRGRRAATAPARARR | 28000 |
| EEGAATDGTADANGKPKKAPRKRKSQAGATTEDGQAPKRRKKKSTDAAGGAAA | 31300 |
| EEGASQRANQRGKGEEGASQTANQRGKGEEGNQRRKGRKGAKGGRGRKGAKGG | 28500 |
| EEGDMDVDEEEGTPTKKRKLSKEEKKALKKEKKKAAKDAAAAVSDYWIVCDQS | 45200 |
| EEGEGPREEGGEEAHEQRDEGRHEEREERKEERREEPVRAAVPVRAAEPAPVV | 23000 |
| EEGERKGEGGKEKWERDAVGNGGRGRQGGEQEEEREEGAGGRGKGGGGRSRGK | 45900 |
| EEGGKEKEMREVERLSADERKLWGEALRLGRTGYSESAMIWVHVLALRVFVET | 37700 |
| EEKAAGRSAASGGAEGEGKKRKAEGGEGAAGEEKKEKKKGRTYRQREPLAAGG | 54900 |
| EEKAPFDIPLDEFFTELEKHSNVSQFNTLDVSEGNQVINESASTNTSSALNCQ | 103000 |
| EEKDTKGGPATTSKAVVKGSKSAADKKKLVKGDAKGKVPENGKRDKSEEKDEK | 21800 |

| Sequence | transcriptional activation domain activity |
| --- | --- |
| EEKKEDDWQVLDGKEKAAGGAGEGDAAEGAEGGATTEGEKKDDAGGAPAGEGA | < 6570 |
| EELWTDVDLYNAQFFFIKLLLHFNDPIYGPNTHELLIVMLGQKGGLYPLWQLL | 59700 |
| EEPKAEEAAPAAEAPAAEAPAAETPAAEPAAEQPATEEAKPAESAATETKKED | 12500 |
| EEPKAEEAKAEEAAKEEPKAEESKAEEPKAEEPKAEEPKAEEEPKAEEAAKEE | 7200 |
| EEPVPKKRGRGRPPKNPAAKAKAAAAAAAAKKAERLPKVRVHKAHTPLRENIH | < 6570 |
| EEQEQDAASKAQEGSKDAPAPKSTENKNEKDAAPNDSSPSKFTKKHKAKKPSK | 24700 |
| EEREEEKEEEKEEKEQEKKKEEETRRRIRSRKRRGARRRETMRKTSQRGNRKK | 25200 |
| EERRRGRRRRRKGGGEGGRGRKREKEREERERKGEKKEGERKGKGEEKGREKK | 20300 |
| EESAEEKQEEEDSADAKKQKTNGDAEEIEEAGENDEEKAEESTSKKKGRPAKN | 25100 |
| EESGGESGGAADKNARVLSTALELALIVLDTCVELDGGRSLSLEHTALLLAAG | 69300 |
| EESLGAGMAKLNLDSATPSSHKSEPIFIAIDCEAYEEGAHAVTEVGVATLDTR | 56000 |
| EESLKHHEGINMVWRKFQSIFRIIGGIIYYEPIYRAFVRHVLHHLHLDNVLWV | 64600 |
| EETKAEEPKATEAATTSTAPAAATEATTAATAETTTEEAKPATNGSTAAADAA | 23200 |
| EETKEDESSSSPADKENEKPKANTSAKQAKPRGEKKEGAASKGKGGRKQANGT | 33200 |
| EETKPAESAKETKPVANRPAQKKPEKRKKEEQEGQEVVEKETSKKRAKKDKKS | 39200 |
| EETPVTEAPKAVEESKPVEEVKSEQKEGAAETAKDEPAQETATERSTESTPAS | 34900 |
| EETVTAEPAAVEEKDGGDDAMAIDTEEPKKKSKKDKKDKKRKAAAETTTATGT | 40600 |
| EEVKPVMAAETKPEEKKASEEAKPEEKSAETSTDKSSGVNRNAVAAAASAATS | 32400 |
| EFEVDSIDELVLILKESEQSDMLRRIGYCRKRMMSLLRLLVTKVDVVKTITKR | 38100 |
| EFFVLWVVQAIIGSRLEMYWAVLMICVLRCNQSYVSNACREVWLSWIIHGWVQ | 61500 |
| EFILHTMPVVAIKDTHAWNGNTPVELGLLGFWNLIVVWLKLLIPWRFFRLWAL | 63800 |
| EFNDIERSVYEIVRKRFIARINSFAAAGQLEKSYTNIFVMLLRLRQLTGHILT | 48200 |
| EFPAPPARPPPSHTAPPAPPPPPPPPPPPAAGGGVPPPPPPPPPPATGGAPAP | 30300 |
| EFVQVAAKPVAKKEESSDEDSDDESEDEKPAAKKAAAPVKVCSGFPYANIALI | 32200 |
| EFVRTSHGRLPAGKRLVKGGYEEDGTPLYHGMAIHEGIKVPGKISHRLYVLQS | 43700 |
